Where “and” joins values, the source holds several entries; their conditions need not be identical. Equal entries are not always repeated.

As usually defined, the stoichiometry N is a count of units in the complex or per binding partner.

The target of test [1] is YsaN wild type full length (untagged) (Yersinia enterocolitica 8081). Briefly: SEC; analytical Superdex 200 HR 10/30; about 10 µM protein pre-incubated with 1.5 mM ADP and 1.5 mM AlCl3 (ADP.AlFX); 50 mM Tris pH 8.0, 100 mM KCl, 4 mM MgCl2, 5 mM NaF, 1 mM DTT, 5% glycerol; 0.5 ml/min, room temperature; apparent molecular weight from a standard curve. On the technique in general: SEC sorts molecules by how far they enter the pores of the column.

Test [2] concerns the target YsaN∆83 (Yersinia enterocolitica 8081). Nature of the test: negative-stain TEM.
For test [3] the target is unchanged. Nature of the test: SEC; analytical Superdex 200 HR 10/30; about 10 µM protein pre-incubated with 1.5 mM ADP and 1.5 mM AlCl3 (ADP.AlFX); 50 mM Tris pH 8.0, 100 mM KCl, 4 mM MgCl2, 5 mM NaF, 1 mM DTT, 5% glycerol; 0.5 ml/min, room temperature; apparent molecular weight from a standard curve.

“YsaN wild type full length (untagged) (enzyme)”: the stoichiometry N in test [1] is 6 and 12.

As to YsaN∆83 (domain or fragment), the stoichiometry N in test [2] and in test [3] was 6 each time.

Source of the values: PMC9493007.
